Data reported in article PMC3225178.

Biological target: SmLip residues 27-176 (mature Lip minus signal peptide) fused to T18 (pSC072) or to T25 (pSC080) (Serratia marcescens)
Test: two-hybrid

## SmLip residues 27-176 (mature Lip minus signal peptide) fused to T18 (pSC072) or to T25 (pSC080) (domain or fragment)
  β-galactosidase activity (two-hybrid output): > 5000 Miller units
